PMC9464236, “Biochemical characterization of a disease-causing human osteoprotegerin variant” (Scientific Reports, 2022)
“And” between values parts separate entries of the source, which are not always exact repeats. Equal entries are not always repeated. Values belong to the binder of their own block, whether it stands above or below them.

Key:
[1] = target: T1, recombinant soluble RANKL (sRANKL) (UniProt O35235 139-316); test: ELISA
T1 chain: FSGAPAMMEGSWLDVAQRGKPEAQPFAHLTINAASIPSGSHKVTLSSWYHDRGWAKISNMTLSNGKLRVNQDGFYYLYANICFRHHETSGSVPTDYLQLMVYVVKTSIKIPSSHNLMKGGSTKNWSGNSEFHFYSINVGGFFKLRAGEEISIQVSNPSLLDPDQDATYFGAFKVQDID

[2] = target: the molecule itself; test: SEC; Superdex 200, 25 mM HEPES pH 7.1, 150 mM NaCl; peak fractions from the heparin Sepharose column; ferritin (440 kDa) and IgG (150 kDa) as markers

- Kd [1]: 4.65 nM
B1: human osteoprotegerin Stop402Leu mutant with a 19-residue C-terminal appendage (OPG^+19) (receptor)
chain: ETFPPKYLHYDEETSHQLLCDKCPPGTYLKQHCTAKWKTVCAPCPDHYYTDSWHTSDECLYCSPVCKELQYVKQECNRTHNRVCECKEGRYLEIEFCLKHRSCPPGFGVVQAGTPERNTVCKRCPDGFFSNETSSKAPCRKHTNCSVFGLLLTQKGNATHDNICSGNSESTQKCGIDVTLCEEAFFRFAVPTKFTPNWLSVLVDNLPGTKVNAESVERIKRQHSSQEQTFQLLKLWKHQNKDQDIVKKIIQDIDLCENSVQRHIGHANLTFEQLRSLMESLPGKKVGAEDIEKTIKACKPSDQILKLLSLWRIKNGDQDTLKGLMHALKHSKTYHFPKTVTQSLKKTIRFLHSFTMYKLYQKLFLEMIGNQVQSVKISCLLLEMAIELFPHNWRDPMDE
notes: Osteoprotegerin (OPG, TNFRSF11B), human; complete open reading frame, residues up to 401, followed by the read-through appendage; 19-residue appendage 402-420 made by read-through of the mutated stop codon (Stop402Leu); Secreted; Mixture of higher-order oligomers; also called mutant hOPG; mutant OPG; source: 293-freestyle cells, transiently transfected; purified from medium (heparin Sepharose, …)
- stoichiometry N [2]: 12 and 6 and 4

- Kd [1]: 4.8 nM
B2: wildtype human osteoprotegerin (WT OPG) (receptor, UniProt O00300 22-401, looked up)
chain: ETFPPKYLHYDEETSHQLLCDKCPPGTYLKQHCTAKWKTVCAPCPDHYYTDSWHTSDECLYCSPVCKELQYVKQECNRTHNRVCECKEGRYLEIEFCLKHRSCPPGFGVVQAGTPERNTVCKRCPDGFFSNETSSKAPCRKHTNCSVFGLLLTQKGNATHDNICSGNSESTQKCGIDVTLCEEAFFRFAVPTKFTPNWLSVLVDNLPGTKVNAESVERIKRQHSSQEQTFQLLKLWKHQNKDQDIVKKIIQDIDLCENSVQRHIGHANLTFEQLRSLMESLPGKKVGAEDIEKTIKACKPSDQILKLLSLWRIKNGDQDTLKGLMHALKHSKTYHFPKTVTQSLKKTIRFLHSFTMYKLYQKLFLEMIGNQVQSVKISCL
notes: Osteoprotegerin (OPG, TNFRSF11B), human; complete open reading frame of full-length human OPG in pcDNA3.4-TOPO; stop codon at position 402; Disulfide-linked dimer; assays used the SEC-purified dimer; also called WT hOPG; hOPG; source: 293-freestyle cells, transiently transfected; purified from medium (heparin Sepharose, Superdex 200)
- stoichiometry N [2]: 2
